Starred links: 1 amine or outer side, 2 acyl side, 3 side chain; linkers in the order of their positions; H or OH if unused. Positions of bridges follow the written chain, without caps; N, C: chain ends. Groups on a side chain read outwards from the residue. Primed or numbered codes have the meaning given here. No end group written: not given here. *: point of attachment. dpeg″ = —[CO(CH2)O(CH2)2O(CH2)NH]— spacer unit, O=C(COCCOCN[*:1])[*:2]; C20 diacid = O=C(O)CCCCCCCCCCCCCCCCCCC(=O)*; C18 diacid = O=C(O)CCCCCCCCCCCCCCCCC(=O)*; C17 diacid = O=C(O)CCCCCCCCCCCCCCCC(=O)*; γGlu = O=C(O)[C@H](CCC(=O)[*:2])N[*:1]
What was measured:
[1] = biological target: T1, human amylin 3 receptor (human, UniProt P30988 25-474; O60896 24-148); assay: cell-based or functional assay
T1 sequence (looked up) 1: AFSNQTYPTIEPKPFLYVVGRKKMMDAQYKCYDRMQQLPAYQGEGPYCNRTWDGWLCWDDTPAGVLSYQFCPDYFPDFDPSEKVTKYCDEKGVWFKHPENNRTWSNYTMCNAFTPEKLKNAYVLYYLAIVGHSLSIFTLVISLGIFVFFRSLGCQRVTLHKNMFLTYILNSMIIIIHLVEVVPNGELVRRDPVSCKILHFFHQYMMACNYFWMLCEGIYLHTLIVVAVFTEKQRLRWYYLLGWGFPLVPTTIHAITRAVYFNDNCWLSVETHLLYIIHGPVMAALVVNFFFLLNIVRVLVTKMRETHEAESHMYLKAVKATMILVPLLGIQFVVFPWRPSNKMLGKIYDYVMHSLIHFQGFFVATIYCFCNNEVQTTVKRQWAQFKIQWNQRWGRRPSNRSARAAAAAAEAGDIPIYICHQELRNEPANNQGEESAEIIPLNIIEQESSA
T1 sequence (looked up) 2: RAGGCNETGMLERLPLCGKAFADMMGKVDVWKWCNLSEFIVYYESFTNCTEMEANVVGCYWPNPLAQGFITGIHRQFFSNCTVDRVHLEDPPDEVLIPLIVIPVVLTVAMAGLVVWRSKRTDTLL

[2] = biological target: T2, human calcitonin receptor (human, UniProt P30988 25-474); assay: cell-based or functional assay
T2 sequence (looked up): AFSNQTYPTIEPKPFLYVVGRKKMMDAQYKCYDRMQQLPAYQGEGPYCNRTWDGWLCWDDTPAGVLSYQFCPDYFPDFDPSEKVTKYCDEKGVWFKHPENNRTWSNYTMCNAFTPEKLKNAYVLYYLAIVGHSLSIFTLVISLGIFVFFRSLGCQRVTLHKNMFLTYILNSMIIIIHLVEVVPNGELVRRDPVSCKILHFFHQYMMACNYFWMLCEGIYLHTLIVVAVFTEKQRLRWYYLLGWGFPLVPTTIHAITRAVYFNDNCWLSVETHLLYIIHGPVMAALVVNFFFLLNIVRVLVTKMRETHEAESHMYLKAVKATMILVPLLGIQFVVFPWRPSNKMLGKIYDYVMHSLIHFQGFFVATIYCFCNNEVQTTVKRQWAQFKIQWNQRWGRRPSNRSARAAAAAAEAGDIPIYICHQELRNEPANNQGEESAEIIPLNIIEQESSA

B1: Compound A5 (peptide)
peptide: SCNTSTCATQRLANEKHKSSNNFGPILPPTKVGSETY
modifications: L-Lys 16 acylated: K*(γGlu-dpeg-dpeg-(γGlu)4-CO(CH2)14CH3); disulfide bridge Cys2-Cys7; C-terminal amide
With B1 the “pEC50 (cAMP accumulation), 0% HSA” value [1] was 12.3 pEC50, the “pEC50 (cAMP accumulation), 0.1% HSA” value [1] was 10.8 pEC50 and the “pEC50 (cAMP accumulation), 4% HSA” value [1] was 9.2 pEC50. For the same binder, the “pEC50 (cAMP accumulation), 0% HSA” value [2] was 10.8 pEC50, the “pEC50 (cAMP accumulation), 0.1% HSA” value [2] was 9.5 pEC50 and the “pEC50 (cAMP accumulation), 4% HSA” value [2] was 7.8 pEC50.

B2: Compound A75 (peptide)
peptide: SCNTSTCATQRLANEK(C20 diacid)HKSSNNFGPILPPTKVGSETY-NH2
modifications: disulfide 2-7; N-terminus assumed
SMILES: CC[C@H](C)[C@H](NC(=O)[C@@H]1CCCN1C(=O)CNC(=O)[C@H](Cc1ccccc1)NC(=O)[C@H](CC(N)=O)NC(=O)[C@H](CC(N)=O)NC(=O)[C@H](CO)NC(=O)[C@H](CO)NC(=O)[C@H](CCCCN)NC(=O)[C@H](Cc1c[nH]cn1)NC(=O)[C@H](CCCCNC(=O)CCCCCCCCCCCCCCCCCCC(=O)O)NC(=O)[C@H](CCC(=O)O)NC(=O)[C@H](CC(N)=O)NC(=O)[C@H](C)NC(=O)[C@H](CC(C)C)NC(=O)[C@H](CCCNC(=N)N)NC(=O)[C@H](CCC(N)=O)NC(=O)[C@@H](NC(=O)[C@H](C)NC(=O)[C@@H]1CSSC[C@H](NC(=O)[C@@H](N)CO)C(=O)N[C@@H](CC(N)=O)C(=O)N[C@@H]([C@@H](C)O)C(=O)N[C@@H](CO)C(=O)N[C@@H]([C@@H](C)O)C(=O)N1)[C@@H](C)O)C(=O)N[C@@H](CC(C)C)C(=O)N1CCC[C@H]1C(=O)N1CCC[C@H]1C(=O)N[C@H](C(=O)N[C@@H](CCCCN)C(=O)N[C@H](C(=O)NCC(=O)N[C@@H](CO)C(=O)N[C@@H](CCC(=O)O)C(=O)N[C@H](C(=O)N[C@@H](Cc1ccc(O)cc1)C(N)=O)[C@@H](C)O)C(C)C)[C@@H](C)O
For B2, the “pEC50 (cAMP accumulation), 0% HSA” value [1] was 11.9 pEC50, the “pEC50 (cAMP accumulation), 0.1% HSA” value [1] was 10.5 pEC50 and the “pEC50 (cAMP accumulation), 4% HSA” value [1] was 8.9 pEC50. For the same binder, the “pEC50 (cAMP accumulation), 0% HSA” value [2] was 10.8 pEC50, the “pEC50 (cAMP accumulation), 0.1% HSA” value [2] was 10 pEC50 and the “pEC50 (cAMP accumulation), 4% HSA” value [2] was 7.7 pEC50.

B3: Compound A112 (peptide)
peptide: K([γGlu-γGlu-dpeg″-dpeg″-γGlu-C20 diacid])CNTSTCATQRLANELHKSSNNFGPILPPTKVGSETY-NH2
modifications: disulfide 2-7
For B3, the “pEC50 (cAMP accumulation), 0% HSA” value [1] was 11.6 pEC50, the “pEC50 (cAMP accumulation), 0.1% HSA” value [1] was 9.3 pEC50 and the “pEC50 (cAMP accumulation), 4% HSA” value [1] was 8 pEC50. The “pEC50 (cAMP accumulation), 0% HSA” value [2] was 10.9 pEC50, the “pEC50 (cAMP accumulation), 0.1% HSA” value [2] was 8.5 pEC50 and the “pEC50 (cAMP accumulation), 4% HSA” value [2] was 7.5 pEC50.

B4: Compound A65 (peptide)
peptide: K([γGlu-γGlu-C18 diacid])CNTSTCATQRLANELHKSSNNFGPILPPTKVGSETY-NH2
modifications: disulfide 2-7; N-terminus assumed
SMILES: CC[C@H](C)[C@H](NC(=O)[C@@H]1CCCN1C(=O)CNC(=O)[C@H](Cc1ccccc1)NC(=O)[C@H](CC(N)=O)NC(=O)[C@H](CC(N)=O)NC(=O)[C@H](CO)NC(=O)[C@H](CO)NC(=O)[C@H](CCCCN)NC(=O)[C@H](Cc1c[nH]cn1)NC(=O)[C@H](CC(C)C)NC(=O)[C@H](CCC(=O)O)NC(=O)[C@H](CC(N)=O)NC(=O)[C@H](C)NC(=O)[C@H](CC(C)C)NC(=O)[C@H](CCCNC(=N)N)NC(=O)[C@H](CCC(N)=O)NC(=O)[C@@H](NC(=O)[C@H](C)NC(=O)[C@@H]1CSSC[C@H](NC(=O)[C@@H](N)CCCCNC(=O)CC[C@H](NC(=O)CC[C@H](NC(=O)CCCCCCCCCCCCCCCCC(=O)O)C(=O)O)C(=O)O)C(=O)N[C@@H](CC(N)=O)C(=O)N[C@@H]([C@@H](C)O)C(=O)N[C@@H](CO)C(=O)N[C@@H]([C@@H](C)O)C(=O)N1)[C@@H](C)O)C(=O)N[C@@H](CC(C)C)C(=O)N1CCC[C@H]1C(=O)N1CCC[C@H]1C(=O)N[C@H](C(=O)N[C@@H](CCCCN)C(=O)N[C@H](C(=O)NCC(=O)N[C@@H](CO)C(=O)N[C@@H](CCC(=O)O)C(=O)N[C@H](C(=O)N[C@@H](Cc1ccc(O)cc1)C(N)=O)[C@@H](C)O)C(C)C)[C@@H](C)O
In the case of B4, the “pEC50 (cAMP accumulation), 0% HSA” value [1] is reported as 11.5 pEC50, the “pEC50 (cAMP accumulation), 0.1% HSA” value [1] is reported as 10.1 pEC50 and the “pEC50 (cAMP accumulation), 4% HSA” value [1] is reported as 8.7 pEC50. For the same binder, the “pEC50 (cAMP accumulation), 0% HSA” value [2] was 10.5 pEC50, the “pEC50 (cAMP accumulation), 0.1% HSA” value [2] was 9 pEC50 and the “pEC50 (cAMP accumulation), 4% HSA” value [2] was 7.9 pEC50.

B5: Compound A79 (peptide)
peptide: SCNTSTCATQRLANEK(C17 diacid)HKSSNNFGPILPPTKVGSETY-NH2
modifications: disulfide 2-7; N-terminus assumed
SMILES: CC[C@H](C)[C@H](NC(=O)[C@@H]1CCCN1C(=O)CNC(=O)[C@H](Cc1ccccc1)NC(=O)[C@H](CC(N)=O)NC(=O)[C@H](CC(N)=O)NC(=O)[C@H](CO)NC(=O)[C@H](CO)NC(=O)[C@H](CCCCN)NC(=O)[C@H](Cc1c[nH]cn1)NC(=O)[C@H](CCCCNC(=O)CCCCCCCCCCCCCCCC(=O)O)NC(=O)[C@H](CCC(=O)O)NC(=O)[C@H](CC(N)=O)NC(=O)[C@H](C)NC(=O)[C@H](CC(C)C)NC(=O)[C@H](CCCNC(=N)N)NC(=O)[C@H](CCC(N)=O)NC(=O)[C@@H](NC(=O)[C@H](C)NC(=O)[C@@H]1CSSC[C@H](NC(=O)[C@@H](N)CO)C(=O)N[C@@H](CC(N)=O)C(=O)N[C@@H]([C@@H](C)O)C(=O)N[C@@H](CO)C(=O)N[C@@H]([C@@H](C)O)C(=O)N1)[C@@H](C)O)C(=O)N[C@@H](CC(C)C)C(=O)N1CCC[C@H]1C(=O)N1CCC[C@H]1C(=O)N[C@H](C(=O)N[C@@H](CCCCN)C(=O)N[C@H](C(=O)NCC(=O)N[C@@H](CO)C(=O)N[C@@H](CCC(=O)O)C(=O)N[C@H](C(=O)N[C@@H](Cc1ccc(O)cc1)C(N)=O)[C@@H](C)O)C(C)C)[C@@H](C)O
B5 was tested, and the “pEC50 (cAMP accumulation), 0% HSA” value [1] was 11.5 pEC50, the “pEC50 (cAMP accumulation), 0.1% HSA” value [1] was 10.4 pEC50 and the “pEC50 (cAMP accumulation), 4% HSA” value [1] was 9.4 pEC50. The “pEC50 (cAMP accumulation), 0% HSA” value [2] was 10.3 pEC50, the “pEC50 (cAMP accumulation), 0.1% HSA” value [2] was 9.9 pEC50 and the “pEC50 (cAMP accumulation), 4% HSA” value [2] was 9.5 pEC50.
